{
  "source": "patent US7361341B2",
  "about": "“Methods of treating cancer using antibodies that immunospecifically bind to trail receptors” (Human Genome Sciences, Inc., priority 2001, dated 2008)",
  "key": {"[1]": {"tested_on": "human primary hepatocytes", "experiment": "Caspase activation in human primary hepatocytes", "format": "cell-based", "conditions": "6 hrs following treatment; T1014G03 62.5-1000 ng/ml, TRAIL 15.6-1000 ng/mL", "experimental": "(§1) The effect of T1014G03 (lot AB22125-M2) in human primary hepatocytes was determined by measuring either caspase activation or cell viability. Human hepatocytes were treated with 15.6, 62.5, 250 or 1000 ng/mL of TRAIL (amino acid residues 114-281, Biomol Research Laboratories Inc, Plymouth Meeting, Pa.), 62.5, 125, 250, or 1000 ng/ml of isotype control mAb (hlgG1,CAT002) or 62.5, 125, 250, or 1000 ng/ml T1014G03. Caspase activation was determined at 6 hrs following treatment, while viability was determined at 24 hrs following treatment.\n(§2) Caspase activity was measured using a fluorimetric assay utilizing the caspase substrate Rhodamine conjugated DEVD, (e.g., Homogeneous Fluorimetric Caspases Assay available from Roche Molecular Biochemicals (Indianapolis, Ind.)). Cell viability was determined using an ALAMAR Blue™ (Biosource International, Camarillo, Calif.) assay. […] In contrast to TRAIL, T1014G03 treatment was found not to effect either caspase or cell viability in human hepatocytes."}, "[2]": {"tested_on": "human primary hepatocytes", "experiment": "Cell viability of human primary hepatocytes (ALAMAR Blue)", "format": "cell-based", "conditions": "24 hrs following treatment; T1014G03 62.5-1000 ng/ml, TRAIL 15.6-1000 ng/mL", "experimental": "as §1, §2"}},
  "data": [
    {"substance": "TRAIL: TRAIL (amino acid residues 114-281, Biomol Research Laboratories Inc)", "values": [
      {"measurement": "caspase activity", "setting": "[1]", "result": "induced caspase activity at the highest concentration tested"},
      {"measurement": "cell viability", "setting": "[2]", "result": "reduced cell viability at all concentrations tested"}
    ]}
  ]
}
